For two substances, IC50, pseudovirus microneutralization assay, H1650 target cells and IC50, pseudovirus neutralization assay, H1650 target cells results are on record in patent US20250289867A1.

Some results are limits rather than exact numbers.

The target in this assay is MERS spike on pseudotyped lentiviral particles (MERS coronavirus) (UniProt K9N5Q8). Nature of the assay: cell-based or functional assay.
UniProt K9N5Q8, sequence (K9N5Q8 18-1353): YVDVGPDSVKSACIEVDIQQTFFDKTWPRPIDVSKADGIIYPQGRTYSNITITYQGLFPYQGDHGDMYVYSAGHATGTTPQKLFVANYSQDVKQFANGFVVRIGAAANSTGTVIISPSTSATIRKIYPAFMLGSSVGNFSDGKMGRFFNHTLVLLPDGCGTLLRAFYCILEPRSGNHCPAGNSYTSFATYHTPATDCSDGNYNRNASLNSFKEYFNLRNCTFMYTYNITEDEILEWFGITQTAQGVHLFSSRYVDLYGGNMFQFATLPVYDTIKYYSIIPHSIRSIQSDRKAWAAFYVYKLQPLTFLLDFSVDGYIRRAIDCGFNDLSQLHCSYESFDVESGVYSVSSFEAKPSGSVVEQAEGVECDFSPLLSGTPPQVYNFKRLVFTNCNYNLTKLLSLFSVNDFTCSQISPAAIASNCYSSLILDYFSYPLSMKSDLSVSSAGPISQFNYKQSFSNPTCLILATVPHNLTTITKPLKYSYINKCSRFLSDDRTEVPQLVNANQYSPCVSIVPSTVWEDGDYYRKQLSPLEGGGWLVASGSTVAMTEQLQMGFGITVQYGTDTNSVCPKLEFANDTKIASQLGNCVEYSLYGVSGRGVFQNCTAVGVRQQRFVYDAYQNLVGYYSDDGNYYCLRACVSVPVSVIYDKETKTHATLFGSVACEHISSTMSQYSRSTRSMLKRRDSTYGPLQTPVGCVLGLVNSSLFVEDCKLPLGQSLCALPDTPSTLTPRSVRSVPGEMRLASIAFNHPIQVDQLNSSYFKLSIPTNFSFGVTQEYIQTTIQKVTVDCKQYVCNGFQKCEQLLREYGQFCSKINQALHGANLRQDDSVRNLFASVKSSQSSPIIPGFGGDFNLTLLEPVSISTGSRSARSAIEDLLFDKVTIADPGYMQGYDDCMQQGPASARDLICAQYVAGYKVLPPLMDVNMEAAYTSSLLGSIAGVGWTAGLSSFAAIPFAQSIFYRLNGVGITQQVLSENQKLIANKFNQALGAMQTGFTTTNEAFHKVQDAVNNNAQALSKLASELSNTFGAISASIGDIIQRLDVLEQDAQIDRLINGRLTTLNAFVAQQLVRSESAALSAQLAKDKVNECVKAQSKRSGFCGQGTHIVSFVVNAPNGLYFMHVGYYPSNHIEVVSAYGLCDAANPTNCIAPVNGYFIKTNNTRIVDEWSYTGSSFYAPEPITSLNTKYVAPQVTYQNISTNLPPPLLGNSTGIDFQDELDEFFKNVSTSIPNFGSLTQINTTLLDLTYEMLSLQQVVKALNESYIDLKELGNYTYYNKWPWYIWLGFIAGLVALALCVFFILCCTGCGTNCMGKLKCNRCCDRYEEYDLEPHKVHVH

“DPP4 recombinant protein (from UniProt P27487 39-766) (receptor)” registered an IC50, pseudovirus microneutralization assay, H1650 target cells of more than 48000 pM.
The substance “NA75-DPP4, displayed on lentiviral-based multivalent particles (from UniProt P27487 30-766) (receptor)” came in with an IC50, pseudovirus neutralization assay, H1650 target cells of 0.87 pM.
